Square brackets hold non-standard residues; d marks the D form. Ends that are not written are not given here.
Molecular target: T1, AMH-R2 (Homo sapiens, UniProt Q16671)
T1 construct: GST
T1 sequence (Q16671 18-573): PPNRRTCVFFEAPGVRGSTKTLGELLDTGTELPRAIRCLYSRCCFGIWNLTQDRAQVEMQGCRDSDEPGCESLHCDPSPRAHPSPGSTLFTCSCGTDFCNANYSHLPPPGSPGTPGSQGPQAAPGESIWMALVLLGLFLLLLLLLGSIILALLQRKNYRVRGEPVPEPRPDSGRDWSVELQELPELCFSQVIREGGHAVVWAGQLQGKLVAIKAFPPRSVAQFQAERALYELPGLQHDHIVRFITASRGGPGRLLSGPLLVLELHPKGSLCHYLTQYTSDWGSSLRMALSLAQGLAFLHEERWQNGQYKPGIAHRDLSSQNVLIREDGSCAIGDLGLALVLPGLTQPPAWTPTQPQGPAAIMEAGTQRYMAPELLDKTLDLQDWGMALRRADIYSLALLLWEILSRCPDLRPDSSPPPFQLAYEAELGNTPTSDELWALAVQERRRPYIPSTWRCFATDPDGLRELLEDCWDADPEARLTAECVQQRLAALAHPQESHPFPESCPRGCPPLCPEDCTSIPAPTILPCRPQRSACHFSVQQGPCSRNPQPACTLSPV
Assay: peptide microarray assay identifying AMH receptor binding peptides
Settings: microarray signal; for Average: average of Rep 1 and Rep 2; for Rep 1: replicate 1; for Rep 2: replicate 2
Text: In view of the several actions of AMH, and because of the need for AMH receptor agonists and/or antagonist that can modify the activity of one or more of the AMH receptors, provided herein are AMH receptor binding peptides that modulate the activity of the AMH receptor, as described herein. Briefly, it was hypothesized that peptides that bind AMH receptors could be generated based on the amino acid sequence of the AMH biding site of the AMH-R2 receptor. More particularly, based on the amino acid sequence of the AMH-R2 that is responsible for binding AMH, as well as the amino acid sequences of AMH-R2 that are near the AMH binding site, a peptide microarray was used to identify candidate AMH receptor binding peptides that can activate AMH-R2 and thus produce similar effects to native AMH.
To identify candidate AMH receptor binding peptides described herein, a custom peptide library composed of replicate copies of a 124,000 17 mer peptide microarray was synthesized (Arizona State University, Tempe, AZ) using the method described in Legutki, J. B., et al., Scalable high-density peptide arrays for comprehensive health monitoring. Nat Commun., volume 5, 4785 (2014). The slide was assembled into an Arrayit 4×24 Hybridization Cassette and each peptide microarray was blocked with 150 uL of 30% human sera in 1×PBST for 1 hour at room temperature with shaking After blocking, the slide was washed 3× with 1×PBST using a Biotek plate washer prior to addition of protein targets. Each protein sample was diluted in 30% human sera in 1×PBST and 150 uL of each sample was dispensed into the appropriate wells in the cassette and incubated for 1 hour at 37 C with rotation at 300 rpm on a ThermoMix™ 500 heater/shaker.
After incubation, the cassette was dismantled, the slide washed 3 times in 1×PBST, rinsed three times with distilled, deionized water (ddH2O), and dried in a centrifuge for 2 minutes at 800 rpm. Secondary antibody (anti-GST, GE Healthcare™) was prepared at 10 nM in 30% human sera in 1×PBST and dispensed onto the slide. The slide was incubated for 1 hour at 37 C with rotation at 300 rpm as before. The slide was then washed 3 times in 1×PBST, rinsed 3 times with ddH2O, and dried in a centrifuge for 2 minutes at 800 rpm. Detection antibody, 10 nM Alexa Flour 647 donkey anti-goat IgG (H+L) (ThermoFisher Scientific™), was prepared in 0.75% casein in 1×PBST and dispensed onto the slide. The slide was covered and incubated for 1 hour at 37 C with rotation as before. The slide was washed 3 times in 1×PBST, rinsed 3 times with ddH2O, and dried in a centrifuge for 2 minutes at 800 rpm. The slide was scanned on an Innopsys™ Inoscan 910AL scanner and the resulting TIFF files were analyzed using the Genepix™ Pro 6.0 software. Data files were exported and analyzed using Microsoft Excel™ and JMP™ software.

| Substance | Average | Rep 1 | Rep 2 |
| --- | --- | --- | --- |
| VGPSVAYNYrVSGValG (VGPSVAYNY[dR]VSGV[dA][dL]G) [SEQ ID NO: 6] | 65427 | 65462 | 65391 |
| FNGPSArNFYrHDVaVS (FNGPSA[dR]NFY[dR]HDV[dA]VS) [SEQ ID NO: 14] | 61835 | 65284 | 58385 |
| YGFPSArVNrYwNrHDa (YGFPSA[dR]VN[dR]Y[dW]N[dR]HD[dA]) [SEQ ID NO: 16] | 61418 | 60363 | 62472 |
| kGGYSNAYkHNPrVlGS ([dK]GGYSNAY[dK]HNP[dR]V[dL]GS) [SEQ ID NO: 7] | 65425 | 65521 | 65329 |
| rGSYSNlFANSGErVGV ([dR]GSYSN[dL]FANSGE[dR]VGV) [SEQ ID NO: 13] | 63774 | 63996 | 63551 |
| DGlGSVlArkNrrDaVl (DG[dL]GSV[dL]A[dR][dK]N[dR][dR]D[dA]V[dL]) [SEQ ID NO: 5] | 65453 | 65431 | 65475 |
| NGrSQAHNlrkaGValS (NG[dR]SQAHN[dL][dR][dK][dA]GV[dA][dL]S) [SEQ ID NO: 15] | 61488 | 62940 | 60035 |
| GGrSVSANlQrErkVaG (GG[dR]SVSAN[dL]Q[dR]E[dR][dK]V[dA]G) [SEQ ID NO: 19] | 56883 | 55679 | 58087 |
| kGSNArkNrrDaSGVal ([dK]GSNA[dR][dK]N[dR][dR]D[dA]SGV[dA][dL]) [SEQ ID NO: 20] | 47876 | 52284 | 43467 |
| EGlQSSAYNNYwrklVa (EG[dL]QSSAYNNY[dW][dR][dK][dL]V[dA]) [SEQ ID NO: 17] | 61198 | 60241 | 62155 |
| wHGwSGANlFPYrSGVS ([dW]HG[dW]SGAN[dL]FPY[dR]SGVS) [SEQ ID NO: 8] | 65335 | 65158 | 65511 |
| YwGwSHAkaNQFPNrla (Y[dW]G[dW]SHA[dK][dA]NQFPN[dR][dL][dA]) [SEQ ID NO: 3] | 65484 | 65502 | 65465 |
| GlYwSAYNPwrHValaS (G[dL]Y[dW]SAYNP[dW][dR]HV[dA][dL][dA]S) [SEQ ID NO: 18] | 59177 | 60848 | 57506 |
| GlQwSFANGQwrGalSG (G[dL]Q[dW]SFANGQ[dW][dR]G[dA][dL]SG) [SEQ ID NO: 12] | 63783 | 64623 | 62943 |
| VGwSFAPNGYrlSGVlG (VG[dW]SFAPNGY[dR][dL]SGV[dL]G) [SEQ ID NO: 9] | 65165 | 65176 | 65153 |
| rGrSQAYNErSGValSG ([dR]G[dR]SQAYNE[dR]SGV[dA][dL]SG) [SEQ ID NO: 10] | 64591 | 63931 | 65250 |
| GSwSGAHNFrkSGVlSG (GS[dW]SGAHNF[dR][dK]SGV[dL]SG) [SEQ ID NO: 11] | 64458 | 65128 | 63787 |
